Values quoted from earlier work, collected in PMC3418248 (2012).

Molecular target: FtsZ C-terminal 17 amino acids (Bacillus subtilis) (UniProt P17865)
Settings: cited from earlier work

EzrA, sequence (O34894 whole entry): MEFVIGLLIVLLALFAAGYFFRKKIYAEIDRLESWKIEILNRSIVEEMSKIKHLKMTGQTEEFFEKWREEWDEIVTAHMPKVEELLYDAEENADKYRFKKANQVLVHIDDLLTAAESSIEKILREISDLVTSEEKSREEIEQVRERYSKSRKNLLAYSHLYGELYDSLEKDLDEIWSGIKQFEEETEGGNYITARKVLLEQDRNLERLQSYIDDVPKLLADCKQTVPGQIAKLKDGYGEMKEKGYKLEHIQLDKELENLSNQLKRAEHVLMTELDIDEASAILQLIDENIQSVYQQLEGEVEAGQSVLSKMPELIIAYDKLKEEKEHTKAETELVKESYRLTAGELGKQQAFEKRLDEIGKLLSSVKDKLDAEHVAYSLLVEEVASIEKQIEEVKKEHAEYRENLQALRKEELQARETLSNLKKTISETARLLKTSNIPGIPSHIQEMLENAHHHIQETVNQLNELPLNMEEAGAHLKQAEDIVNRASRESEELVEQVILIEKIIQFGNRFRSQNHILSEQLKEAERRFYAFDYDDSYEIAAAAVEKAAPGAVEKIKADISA

## EzrA (from UniProt O34894)
  Kd: 102 µM
